Literature values in publication PMC3385930.
pKd: −log10 of the molar value.

Columns and labels:
[1] = target: Band 3 (Homo sapiens) (UniProt P02730)
[2] = target: Adducin (Homo sapiens) (UniProt P35611)

UniProt P02730, sequence (P02730 whole entry): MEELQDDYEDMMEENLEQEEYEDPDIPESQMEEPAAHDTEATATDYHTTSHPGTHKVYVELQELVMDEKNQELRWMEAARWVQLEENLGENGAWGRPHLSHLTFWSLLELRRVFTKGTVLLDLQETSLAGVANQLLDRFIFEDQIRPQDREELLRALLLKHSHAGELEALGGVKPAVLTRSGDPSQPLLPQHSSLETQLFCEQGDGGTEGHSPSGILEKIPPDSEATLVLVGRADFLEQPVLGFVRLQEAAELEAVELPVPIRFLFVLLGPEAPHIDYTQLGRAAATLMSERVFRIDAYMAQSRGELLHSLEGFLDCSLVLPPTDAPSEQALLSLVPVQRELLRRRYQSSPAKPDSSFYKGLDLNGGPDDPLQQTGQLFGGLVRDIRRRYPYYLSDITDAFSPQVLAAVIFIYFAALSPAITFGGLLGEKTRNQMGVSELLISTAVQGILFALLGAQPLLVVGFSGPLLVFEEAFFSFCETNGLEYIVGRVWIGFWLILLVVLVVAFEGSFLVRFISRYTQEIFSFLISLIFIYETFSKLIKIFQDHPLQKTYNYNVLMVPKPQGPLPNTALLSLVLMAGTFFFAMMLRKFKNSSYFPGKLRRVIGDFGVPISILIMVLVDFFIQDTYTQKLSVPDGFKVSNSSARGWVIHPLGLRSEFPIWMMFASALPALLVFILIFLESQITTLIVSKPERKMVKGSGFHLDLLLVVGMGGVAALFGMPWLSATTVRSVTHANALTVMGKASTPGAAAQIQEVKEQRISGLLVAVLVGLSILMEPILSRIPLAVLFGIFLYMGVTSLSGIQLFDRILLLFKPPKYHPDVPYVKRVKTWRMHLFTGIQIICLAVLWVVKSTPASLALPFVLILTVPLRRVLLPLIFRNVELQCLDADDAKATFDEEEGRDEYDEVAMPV

| pKd [1] | pKd [2] | Substance |
| --- | --- | --- |
| 7.00 |  | Adducin (from UniProt P35611) |
|  | 7.00 | Stomatin (from UniProt P27105) |
